Data as given in the supplement of paper PMC9170038.

System: MS2 coat protein
Experiment: apparent KD of MS2 coat protein; designed switch direction (-1 OFF switch, 1 ON switch): -1; higher = weaker reporter binding
Method in brief: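 The buffer was Tris-HCl pH 7.5 with KCl, MgCl2, BSA, DTT, tRNA and Tween-20. In it, SNAP-549-labelled MS2 coat protein was titrated in doubling steps from 0.7 or 1.5 nM to 3 µM over chip-bound RNA switches transcribed by stalled E. coli RNA polymerase on Illumina chips. Apparent KD is the per-design median over clusters of curve fits to normalised fluorescence.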

[1] = Eterna round: R95, input ligand: microRNA oligo, concentration not stated
[2] = Eterna round: R95, input ligand: FMN 200 uM
[3] = Eterna round: R95, input ligand: none
[4] = input ligand: microRNA oligo, concentration not stated

Sequence	apparent KD of MS2 coat protein (input ligand: FMN 200 uM) [nM]	apparent KD of MS2 coat protein (input ligand: none) [nM]	apparent KD of MS2 coat protein [1] [nM]	apparent KD of MS2 coat protein [2] [nM]	apparent KD of MS2 coat protein [3] [nM]	apparent KD of MS2 coat protein [4] [nM]
GGUAUGCAGGCUUUAGGUAACAUGAGGAUCACCCAUGUAGCAGGUCGUAACCAGGUCAUUGGUUCUCAACGCUCGUU [Eternabot (L2) Solution 46] (Eterna round: R97, puzzle: Sensor, turn-off variant 1)	31.4	34.4				
UUUUACAUAGGAUAUAGUUGCUUUUACAUGAGGAUCACCCAUGUCUCUCCUCUCUCUCUUCUAGAAGGAUGUUUCU [JR_E5_Sub011] (puzzle: Exclusion 5)			53.3			
CCGUCACAUGAGGAUCACCCAUGUCAGGAUAUCUCAGUGCAUCCACACGGACGCAUCAAGAGAAGGGACAAAAC [Vinxlusion 6 - Jieux - Exclusion 1] (Eterna round: R97, puzzle: Exclusion 1)	47.9	34.8				
UUGUUACAUGAGGAUCACCCAUGUGAGGAUAUGGUUCAGUACUGUCAUGUCAAGUACUCCAGAAGGCACAUGUU [1st #30] (Eterna round: R97, puzzle: Exclusion 1)	566	508				
AUAAUGUGAGGAUAUCAGUCGACUAGCUUCGGCUAGUCGACUGAGAAGGUACAUGAGGAUCACCCAUGUGGUUC [E4/11-B1] (Eterna round: R97, puzzle: Exclusion 4)	885	456				
GGAAAACAUGAGGAUCACCCAUGUAAGGAUAUGCAAAAGGAUAUAGAAGGAAAAUAAAGCAGAAGGUACAAAGG [salish99-ex1_r3_098] (puzzle: Exclusion 1)			23.7	126	127	
GGUGGACAUGAGGAUCACCCAUGUGAGGAUAUCGGCUAUCUUGUCGCUGUCGGUUGCUCGAGAAGGCACAUUGU [Exclusion 1 V95] (puzzle: Exclusion 1)			69.2			
GCGAAAGCAAGCAAGUGAAACAUGAGGAUCACCCAUGUCCUCAUUUGUUCGUCUUAUAAGCUAUGCGAAAGCAUAGC [Sensor 3, v1 - 7] (puzzle: Sensor v3, turn-off variant 1)			218	18.4	19.4	
AACAAGCUUUUAAGAUCCUACAUGAGGAUCACCCAUGUGCUCGUCUUGUAACGUACUGUGACGAAAGUCACGGUACG [JL TOV1 3.29] (Eterna round: R97, puzzle: Sensor, turn-off variant 1)	233	182				
CUAGUCCGAGGAUAUAUAUUGUGAUACAUGAGGAUCACCCAUGUAAUAAUAUGGAAAUAAAUAGAAGGCGGACUAG [Mat - Exclusion 5 - JL mod - D53] (puzzle: Exclusion 5)			36.8	56.4	27	
CAGUACUGAGGAUAUACAUGAGGAUCACCCAUGUGAUUUAGUGCACGCGUACGUGUACGUAGAAGGCAGUACUG [JL 3.27 m1] (Eterna round: R97, puzzle: Exclusion 3)	182	20.8				
GCGCAGUCAGGAUAUGCCGCUGGCGAUCACCGUGGGCAAAGGCAGAAGGGACAUGAGGAUCACCCAUGUGGCGC [e4e Mirror Pins #2] (puzzle: Exclusion 4)			39			
UCGCUGCGAGGAUAUACAUGAGGAUCACCCAUGUACGGGUCCGGGUCUUCGUCCAUUGGUAGAAGGCGCAGUGA [JL Laongeedie mod 7] (puzzle: Exclusion 3)			22.5			
UUAUUCAGAGGAUAUGCGCAUAGAUAAGACUUUUUUUCUUAACAUGAGGAUCACCCAUGUAGAAGGCUGUAAUA [Ex2 #57] (Eterna round: R97, puzzle: Exclusion 2)	19.8	18.4				
CCCAGUUAUUGAGGAUAUCGUACAUGAGGAUCACCCAUGUAAUAAAUGAGGAUUUCGGGUGUCUACGAGAAGGCAAGGAUAGGC [Ostracism 21 - Jieux - Exclusion NG 2] (Eterna round: R96, puzzle: Exclusion NG 2)	61.3	49.6				37.4
GUCGAACAUGAGGAUCACCCAUGUGAGGAUAUGCGAAUUUCAUCAAAAGAUGAAAUUUGCAGAAGGCACACGAC [Omei Ex1 A15] (Eterna round: R97, puzzle: Exclusion 1)	26.4	23.4				
UAAUACAAGUAAAGAUCCUACAUGAGGAUCACCCAUGUGCUCGUCUUGUAAAGUACUAUCACGAAAGUGAUAGUACA [Mat - Sensor v3 - turn-off var 1 - Eli Mod - D85] (puzzle: Sensor v3, turn-off variant 1)			196	41	53.1	
AGGCCCGAUGGAGGAUAUGUAAGUAAUUGAGAUACUUCAUGUCACAUGAGGAUCACCCAUGUACGGCAGAAGGCCGACGGAGCC [Raanoner] (Eterna round: R96, puzzle: Exclusion NG 2)	24.9	20				17.3
UAUAGUUCAGGAUAUGAUGAAUUAAACAUGAGGAUCACCCAUGUAGAUCCUGAAUUAACAUCAGAAGGGAAUAUUU [JL-ex5-4.49 Brourd mod] (Eterna round: R97, puzzle: Exclusion 5)	17.4	14.3				
CCCGACAUGUCUUCGUAAUACAUGAGGAUCACCCAUGUCACGUAGGAUAUCCAGUCGGUAAGAGAGGAGAAGGAUGUAAGAAAU [Vedite] (Eterna round: R96, puzzle: Exclusion NG 3)	15.5	15.5				9.14
CCAUCACAUGAGGAUCACCCAUGUUAGGAUAUCAUUAGCCUCGGAGCUAUAGCGAGGUUGAGAAGGGACAUGUC [Eternabot (L1) Solution 87] (Eterna round: R97, puzzle: Exclusion 1)	19.9	22.7				
ACGUGCACUCAGGAUAUGCUACGCCUGCUCUCAGCAGAAGGGAGUACAUGAGGAUCACCCAUGUGACAUCUGAU [Eternabot (Original) Solution 13] (Eterna round: R97, puzzle: Exclusion 6)	44.3	26				
UUUAAUUUUUUUUUUUUACAAGCUUUUUGCUCGUCUUAUACAUGAGGAUCACCCAUGUAGGUGAAGGAUAAAUUAUC [JMF 27] (puzzle: Sensor v3, turn-off variant 2)			66.4	25.9	35.9	
AAUAACAAGCAGAUCCUAAACAUGAGGAUCACCCAUGUGCUCGUCUUGUUGUACUAUCACUCGAAAGUGAUAGUACA (Eterna round: R97, puzzle: Sensor, turn-off variant 1)	90.1	104				
GGUUGACAUGAGGAUCACCCAUGUGAGGAUAUGCGAGAGAAAAAAGUGAGGAAGUUUAGCAGAAGGCGCUGUCG [salish99-ex1_r3_006] (puzzle: Exclusion 1)			71	55.6	97.7	
UUUUAACAUGAGGAUCACCCAUGUGAGGAUAUCGAAAUUUAUAUUUAUAUUUAUAUUACGAGAAGGCACAUUUU [JMF 98] (puzzle: Exclusion 1)			84.3			
